Assay [1] concerns the target HLA-A*01:01. Kind of assay: IEDB peptide-MHC binding, purified MHC/direct/fluorescence; filed as Kd, often an IC50 or EC50 that approximates it; ≥ and ≤ were set here for values at or beyond the usual limits of such assays. The note with it: source organism: Escherichia coli O157:H7.
In assay [2] the target is HLA-A*03:01. Described as above.
Assay [3] addresses HLA-A*11:01. The description is as above.
Assay [4] deals with HLA-A*31:01. Described as above. The note with it: source organism: Escherichia coli O157:H7.
The target of assay [5] is HLA-B*27:05. The description is as above. The following applies: source organism: Escherichia coli O157:H7.
Assay [6] addresses HLA-B*40:01. The assay is described as above. The note with it: source organism: Escherichia coli O157:H7.
For assay [7], the target named is HLA-B*46:01. The assay is described as above. The note with it: source organism: Escherichia coli O157:H7.
For assay [8], the target named is HLA-B*48:01. The description is as above. The note with it: source organism: Escherichia coli O157:H7.
Assay [9] addresses HLA-B*57:01. The description is as above. The following applies: source organism: Escherichia coli O157:H7.
Assay [10] deals with HLA-B*58:01. Described as above. The following applies: source organism: Escherichia coli O157:H7.
Assay [11] has as its target HLA-A*02:01. Kind of assay: IEDB peptide-MHC binding, purified MHC/competitive/fluorescence; filed as Kd, often an IC50 or EC50 that approximates it; ≥ and ≤ were set here for values at or beyond the usual limits of such assays.
Assay [12] concerns the target HLA-A*69:01. The assay is described as above.
For assay [13], the target named is HLA-B*08:01. Described as above.
In assay [14] the target is HLA-B*15:01. Described as above. The following applies: source organism: Escherichia coli O157:H7 str. EDL933.
Assay [15] deals with HLA-A*24:02. The assay can be described thus: IEDB peptide-MHC binding, purified MHC/competitive/fluorescence; ≥ and ≤ were set here for values at or beyond the usual limits of such assays. The following applies: source organism: Sudan ebolavirus.
For assay [16], the target named is HLA-B*15:01. The description is as above. The note with it: source organism: Sudan ebolavirus.
Assay [17] deals with HLA-A*02:03. The assay can be described thus: IEDB peptide-MHC binding, purified MHC/direct/fluorescence; filed as Kd, often an IC50 or EC50 that approximates it; ≥ and ≤ were set here for values at or beyond the usual limits of such assays.
Assay [18] has as its target HLA-A*02:11. The assay is described as above.
In assay [19] the target is HLA-A*02:12. The assay is described as above.
The target in assay [20] is HLA-A*02:16. The description is as above.
In assay [21] the target is HLA-A*02:19. Described as above.
Assay [22] addresses HLA-A*23:01. Described as above.
The target of assay [23] is HLA-A*24:03. The assay is described as above.
The target of assay [24] is HLA-A*29:02. The description is as above.
Assay [25] concerns the target HLA-A*68:02. The description is as above.
The target of assay [26] is HLA-B*15:01. The assay is described as above. The note with it: source organism: Ebola virus - Eckron (Zaire, 1976).
The target of assay [27] is HLA-A*26:01. Kind of assay: IEDB peptide-MHC binding, purified MHC/competitive/fluorescence; filed as Kd, often an IC50 or EC50 that approximates it; ≥ and ≤ were set here for values at or beyond the usual limits of such assays.
Assay [28] has as its target HLA-B*15:17. Described as above.
Assay [29] addresses HLA-B*18:01. Described as above.
Assay [30] concerns the target HLA-B*27:03. The description is as above. The note with it: source organism: Zaire ebolavirus.
The target in assay [31] is HLA-B*39:01. Described as above.
Assay [32] concerns the target HLA-B*46:01. Described as above.
For assay [33], the target named is HLA-B*51:01. The description is as above.
In assay [34] the target is HLA-B*57:01. Described as above.
Assay [35] addresses HLA-B*51:01. Kind of assay: IEDB peptide-MHC binding, purified MHC/direct/fluorescence; filed as Kd, often an IC50 or EC50 that approximates it; ≥ and ≤ were set here for values at or beyond the usual limits of such assays. The note with it: source organism: Homo sapiens.
Assay [36] addresses HLA-B*15:42. The assay can be described thus: IEDB peptide-MHC binding, purified MHC/competitive/fluorescence; filed as Kd, often an IC50 or EC50 that approximates it; ≥ and ≤ were set here for values at or beyond the usual limits of such assays. The note with it: source organism: Vibrio parahaemolyticus RIMD 2210633.
Assay [37] addresses HLA-B*45:06. Described as above. The following applies: source organism: Vibrio parahaemolyticus RIMD 2210633.
Assay [38] deals with HLA-B*83:01. The assay is described as above. The note with it: source organism: Vibrio parahaemolyticus RIMD 2210633.
Assay [39] addresses HLA-B*39:01. Kind of assay: IEDB peptide-MHC binding, purified MHC/direct/fluorescence; filed as Kd, often an IC50 or EC50 that approximates it; ≥ and ≤ were set here for values at or beyond the usual limits of such assays. The note with it: source organism: Camelpox virus M-96.
[40] abbreviates: source organism: Escherichia coli O157:H7.
Where [41] appears, read: source organism: Escherichia coli O157:H7 str. EDL933.
Setting [42] is: source organism: Zaire ebolavirus.
Setting [43] is: source organism: Vibrio parahaemolyticus RIMD 2210633.

Bounds are passed on as bounds.

Consider six sequences from the Immune Epitope Database (IEDB).

Broadly, the Kd is a measure of binding affinity in units of concentration. The low end stands for higher affinity, the high end for lower affinity. The IC50 is the point on the concentration scale where inhibition reaches its midpoint.

For FIVEHINAM, the Kd in assay [1], in assay [2] (setting [40]), in assay [3] (setting [40]), in [4], in [5] and in assay [6] was at least 20 µM throughout. Moreover, the Kd is 0.232 µM in [7]; at least 20 µM in [8]; at least 20 µM in assay [9]; at least 20 µM in assay [10]; 0.0104 µM in [11] (setting [41]); 0.68 µM in [12] (setting [41]). Further, the Kd in [13] (setting [41]) worked out at 0.91 µM; in assay [14], 0.0925 µM.

Consider ILNRKAIDF, for which the IC50 in assay [15] was found to be 3.28 µM; in assay [16], 12.5 µM. Moreover, the Kd in assay [17] (setting [42]), in assay [18] (setting [42]), in [19] (setting [42]), in assay [20] (setting [42]), in [21] (setting [42]) and in assay [2] (setting [42]) was at least 20 µM each time. Besides, the Kd is at least 20 µM in assay [22] (setting [42]); at least 20 µM in [23] (setting [42]); at least 20 µM in assay [24] (setting [42]); at least 20 µM in [25] (setting [42]); 0.372 µM in assay [26]; at least 20 µM in [11] (setting [42]). Further, the Kd in assay [27] (setting [42]), in assay [12] (setting [42]), in assay [28] (setting [42]), in assay [29] (setting [42]), in assay [30] and in assay [31] (setting [42]) was at least 20 µM each time. For the same sequence, the Kd in assay [32] (setting [42]), in assay [33] (setting [42]) and in assay [34] (setting [42]) was at least 20 µM throughout.

In assay [35], YPGFGEHLI yielded a Kd of 1.89 µM.

As to SMNYPNSYK, the Kd in assay [17] (setting [43]) was at least 20 µM; in [18] (setting [43]), at least 20 µM; in assay [19] (setting [43]) it was at least 20 µM; in [20] (setting [43]) it was at least 20 µM; in assay [21] (setting [43]), at least 20 µM; in assay [3] (setting [43]) it was at most 0.001 µM. In addition, the Kd in [22] (setting [43]), in assay [23] (setting [43]), in assay [24] (setting [43]), in [25] (setting [43]), in assay [11] (setting [43]) and in assay [27] (setting [43]) was at least 20 µM in each case. Besides, the Kd in [12] (setting [43]) is at least 20 µM; in assay [28] (setting [43]) it was at least 20 µM; in assay [36], at least 5 µM; in [29] (setting [43]) it was at least 20 µM; in assay [31] (setting [43]), at least 20 µM; in assay [37], at least 5 µM. The Kd is at least 20 µM in assay [32] (setting [43]), at least 20 µM in assay [33] (setting [43]), at least 20 µM in assay [34] (setting [43]) and at least 5 µM in assay [38].

With MQQGRFPPL, in [13] (source organism: Yersinia pestis CO92), the Kd was 0.34 µM.

As for HHDPILNGL, the Kd in assay [39] worked out at 0.0426 µM.
